± gives the uncertainty stated by the source.
Test: protein stability index of a GFP-peptide fusion (yeast GPS) (PSI 1-4); higher = more stable; sorted into four equal gates, so the index is relative within each strain
In short: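 Plasmids in a pooled yeast library fused tiled 17-residue yeast protein peptides downstream of GFP and also expressed Cherry. Mid-log cultures grown without leucine were sorted into four equal gates by GFP/Cherry fluorescence ratio. Each gate's plasmids were PCR-amplified and Illumina-sequenced, and reads were matched to strains by barcodes. The protein stability index is derived by multiplying each gate's read frequency by its gate number and summing the results.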

Sequence	protein stability index (doa10∆)	protein stability index (pdr5∆)	protein stability index (san1∆)	protein stability index (ubr1∆)
RKASCIWLLSYIQYLGH [ECM29]	1.88 ± 0.06	2.15 ± 0.046	2.32 ± 0.054	1.96 ± 0.036
RKCETQKQWDDIAFVLN [YCS4]	2.96 ± 0.076	3.01 ± 0.076	2.7 ± 0.12	3.13 ± 0.078
RKCQFRTPDSISVNSSS [POP1]	2.44 ± 0.074	2.52 ± 0.073	2.64 ± 0.056	2.37 ± 0.062
RKEPPATVEECVKLTVR [PRE6]	1.45 ± 0.06	1.67 ± 0.074	1.7 ± 0.2	1.43 ± 0.055
RKFERARGRRRSKGFKV [RPL18A]	3.28 ± 0.1	3.24 ± 0.094	3.54 ± 0.12	3.15 ± 0.059
RKFHELNDHIDDFEVNV [GRR1]	3.07 ± 0.097	3.18 ± 0.1	2.42 ± 0.16	3.08 ± 0.073
RKHHKKGITEEVAKKRS [RPL24A]	3.36 ± 0.12	3.45 ± 0.2	3.19 ± 0.17	3.02 ± 0.092
RKHKRVSPNAAPRQEIS [YAR002W/NUP60]	2.92 ± 0.08	2.89 ± 0.056	2.92 ± 0.046	2.71 ± 0.063
RKKARTFDSSWNWAKQS [FAS2]	1.79 ± 0.14	1.97 ± 0.12	2.32 ± 0.12	2.95 ± 0.074
RKRAHSLVSTQSSSSTR [REC8]	2.86 ± 0.069	2.94 ± 0.068	2.77 ± 0.051	2.92 ± 0.068
RKRCKGTVGNSHKTTKE [RPL11A]	2.94 ± 0.28	3 ± 0.17	2.99 ± 0.16	
RLELLQLSPVKNSRVEL [SMC4]		3.54 ± 0.25	3.22 ± 0.13	
RLIDLSGCENITDKTIE [GRR1]	3.05 ± 0.068	3.21 ± 0.093	2.85 ± 0.079	2.88 ± 0.093
RLKFGHRLIATHTNLER [SNF2]	2.41 ± 0.064	2.04 ± 0.054	2.29 ± 0.067	2.5 ± 0.045
RLRTLCRDSDDHKRFIV [DIS3]	2.68 ± 0.2	2.75 ± 0.13	2.2 ± 0.27	2.95 ± 0.048
RMFEKNVMLNIYPRTVI [SKI6]	2.21 ± 0.14	1.37 ± 0.11	1.06 ± 0.27	2.24 ± 0.094
RMHLAPASKQGYLITPP [SSN2]	1.36 ± 0.25	1.45 ± 0.24		1.36 ± 0.13
RMRIFASNEVIAKSRYW [RPL20A]	2 ± 0.049	2.57 ± 0.065	2.54 ± 0.068	2.53 ± 0.035
RNAEFKVSKNSTSFKNP [YMR153W/NUP53]	2.79 ± 0.093	2.13 ± 0.062	2.14 ± 0.1	2.46 ± 0.076
RNQVQTENVAQARIILN [YGR119C/NUP57]	3 ± 0.1	2.9 ± 0.092	3.01 ± 0.05	2.78 ± 0.042

Sequence	protein stability index (doa10∆)	protein stability index (pdr5∆)	protein stability index (san1∆)	protein stability index (ubr1∆)
RNSKTVREFLEKNYDRK [PRE6]	3.08 ± 0.27			
RNVEQKLNELDELILEA [NNF1]	3.3 ± 0.062	3.29 ± 0.059	3.22 ± 0.039	3.4 ± 0.046
RPFEGLFVISTEISPMA [RRP45]	2.67 ± 0.048	2.87 ± 0.049	3.04 ± 0.061	2.86 ± 0.037
RPGRIDRKIEFPPPSVA [RPT6]	3.21 ± 0.072	3.26 ± 0.07	3.05 ± 0.054	3.25 ± 0.048
RPHQSRESLIMLLEEQL [MED7]	2 ± 0.081	2.37 ± 0.093	1.45 ± 0.19	2.12 ± 0.054
RPNRRGPRNTEEKGWVP [RPS2]	3.42 ± 0.15	3.49 ± 0.13	3.68 ± 0.12	3.66 ± 0.079
RPQKLRASLVPGTVLIL [RPL6A]	2.1 ± 0.066	2.32 ± 0.064	2.11 ± 0.077	2.45 ± 0.081
RQKARTDAHTPLARNYI [RPR2]	2.63 ± 0.054	2.52 ± 0.058	2.78 ± 0.049	2.86 ± 0.042
RQNKVQHQRIVAFVCSP [RPN10]	1.24 ± 0.069	1.4 ± 0.12		1.42 ± 0.12
RQPSLHRLSILSHYAKI [RPO31]	1.74 ± 0.077	2.1 ± 0.071	1.36 ± 0.12	2.13 ± 0.063
RRGAHGSELSSKIRKIH [SIR3]	2.32 ± 0.12	2.02 ± 0.087	2.57 ± 0.15	2.54 ± 0.063
RRHRNPDLQFIVISLKN [SMC1]	1.86 ± 0.041	1.83 ± 0.039	1.73 ± 0.058	2.13 ± 0.027
RRKKILNEIELDNLKLK [GRR1]	3.04 ± 0.11	3.04 ± 0.086	2.76 ± 0.093	2.87 ± 0.068
RRLAFLGIKVAELTGDS [BRR2]		2.24 ± 0.19	2.71 ± 0.16	
RRLHDENLMVQRTCLMT [YCS4]	2.43 ± 0.064	2.44 ± 0.057	2.45 ± 0.058	2.24 ± 0.047
RRNLRYGDRMKLAKNLQ [RPO31]	3.15 ± 0.091	3.38 ± 0.073	3.48 ± 0.079	3.44 ± 0.067
RRQAVDVSPLRRVNQAI [RPS5]	2.63 ± 0.083	2.62 ± 0.094	2.69 ± 0.078	2.75 ± 0.083
RRRKGISTGGFMSNDGP [SNU114]	1.46 ± 0.086	1.47 ± 0.1	1.18 ± 0.14	1.33 ± 0.063
RRSKQLINLAKTRVGSV [RPC82]	3.25 ± 0.053	2.91 ± 0.062	2.95 ± 0.049	3.25 ± 0.044
RRVNQAIALLTIGAREA [RPS5]	3.21 ± 0.21	2.72 ± 0.21	2.6 ± 0.24	3.36 ± 0.22
